# From the Immune Epitope Database (IEDB)
# Assays:
# [1] = biological target: HLA-A*68:02; experiment: IEDB peptide-MHC binding, purified MHC/competitive/radioactivity; filed as Kd, often an IC50 or EC50 that approximates it; ≥ and ≤ were set here for values at or beyond the usual limits of such assays
# [2] = biological target: HLA-B*51:01; experiment: as above
# [3] = biological target: HLA-A*02:06; experiment: as above; details: source organism: Homo sapiens
# [4] = biological target: HLA-A*02:01; experiment: IEDB peptide-MHC binding, purified MHC/direct/fluorescence; filed as Kd, often an IC50 or EC50 that approximates it; ≥ and ≤ were set here for values at or beyond the usual limits of such assays
# [5] = biological target: HLA-B*08:01; experiment: as above
# [6] = biological target: HLA-A*69:01; experiment: as above
# [7] = biological target: HLA-A*31:01; experiment: as above
# [8] = biological target: HLA-A*03:01; experiment: as above
# [9] = biological target: HLA-A*26:01; experiment: as above
# [10] = biological target: HLA-B*58:01; experiment: as above; details: source organism: Shewanella violacea
# [11] = biological target: HLA-B*40:01; experiment: as above
# [12] = biological target: HLA-B*27:05; experiment: as above
# [13] = biological target: HLA-A*11:01; experiment: as above
# [14] = biological target: HLA-A*01:01; experiment: as above
# [15] = biological target: HLA-B*07:02; experiment: as above
# [16] = biological target: HLA-B*45:01; experiment: IEDB peptide-MHC binding, purified MHC/competitive/radioactivity; filed as Kd, often an IC50 or EC50 that approximates it; ≥ and ≤ were set here for values at or beyond the usual limits of such assays
# [17] = biological target: HLA-B*40:01; experiment: as above
# [18] = biological target: HLA-B*18:01; experiment: as above
# [19] = biological target: HLA-B*44:02; experiment: as above
# [20] = biological target: HLA-B*40:02; experiment: as above
# [21] = biological target: HLA-B*44:03; experiment: as above
# [22] = biological target: HLA-B*15:01; experiment: IEDB peptide-MHC binding, purified MHC/direct/fluorescence; filed as Kd, often an IC50 or EC50 that approximates it; ≥ and ≤ were set here for values at or beyond the usual limits of such assays; details: source organism: Rhizobium wenxiniae
# [23] = biological target: HLA-B*39:01; experiment: IEDB peptide-MHC binding, purified MHC/competitive/fluorescence; filed as Kd, often an IC50 or EC50 that approximates it; ≥ and ≤ were set here for values at or beyond the usual limits of such assays; details: source organism: Rhizobium wenxiniae
# [24] = biological target: HLA-A*26:01; experiment: as above; details: source organism: Bacillus anthracis str. A2012
# [25] = biological target: HLA-B*15:01; experiment: IEDB peptide-MHC binding, purified MHC/competitive/radioactivity; filed as Kd, often an IC50 or EC50 that approximates it; ≥ and ≤ were set here for values at or beyond the usual limits of such assays; details: source organism: Dengue virus 2 Jamaica/1409/1983
# [26] = biological target: HLA-B*35:01; experiment: as above
# [27] = source organism: Dengue virus 2 Jamaica/1409/1983
# [28] = source organism: Shewanella violacea
# [29] = source organism: Haemophilus influenzae
# [30] = source organism: Mammarenavirus guanaritoense
# [31] = source organism: Rhizobium wenxiniae
# [32] = source organism: SARS coronavirus Tor2
# [33] = source organism: Mammarenavirus brazilense
# [34] = source organism: Mammarenavirus machupoense
# [35] = source organism: Dengue virus 4 Philippines/H241/1956
# [36] = source organism: Mammarenavirus juninense
sequence,measurement,setting,value
AMITDLEERL,Kd,[1]; source organism: Homo sapiens,0.784 µM
CTILAAVSV,Kd,[1]; [27],0.00152 µM
DPFPQSNAPI,Kd,[2]; [27],0.69 µM
EMETLQSQL,Kd,[1]; source organism: Homo sapiens,12.3 µM
same,Kd,[3],≥ 61.1 µM
ETKGKRRLL,Kd,[4]; [28],≥ 20 µM
same,Kd,[5]; [29],7.47 µM
same,Kd,[6]; [28],≥ 20 µM
same,Kd,[7]; [28],≥ 20 µM
same,Kd,[8]; [28],≥ 20 µM
same,Kd,[9]; [29],7.12 µM
same,Kd,[10],≥ 20 µM
same,Kd,[11]; [28],≥ 20 µM
same,Kd,[12]; [28],≥ 20 µM
same,Kd,[13]; [28],≥ 20 µM
same,Kd,[14]; [28],≥ 20 µM
same,Kd,[15]; [28],≥ 20 µM
FEEALNVALA,Kd,[16]; [30],0.0893 µM
same,Kd,[17]; [30],5.56 µM
same,Kd,[18]; [30],0.0991 µM
same,Kd,[19]; [30],≥ 70.2 µM
same,Kd,[20]; [30],0.279 µM
same,Kd,[21]; [30],≥ 70.1 µM
FGIFTTNIWL,Kd,[2]; source organism: Dengue virus 1 Brazil/97-11/1997,≥ 20.6 µM
FHLRSRFAF,Kd,[4]; [31],≥ 20 µM
same,Kd,[5]; [31],0.113 µM
same,Kd,[6]; [31],≥ 20 µM
same,Kd,[7]; [31],≥ 20 µM
same,Kd,[8]; [31],≥ 20 µM
same,Kd,[9]; [31],≥ 20 µM
same,Kd,[11]; [31],≥ 20 µM
same,Kd,[22],≥ 20 µM
same,Kd,[12]; [31],≥ 20 µM
same,Kd,[13]; [31],≥ 20 µM
same,Kd,[14]; [31],≥ 20 µM
same,Kd,[15]; [31],≥ 20 µM
same,Kd,[23],≤ 0.001 µM
GECPKFVFPL,Kd,[16]; [32],3.6 µM
same,Kd,[17]; [32],0.00273 µM
same,Kd,[18]; [32],≥ 70.5 µM
same,Kd,[19]; [32],0.952 µM
same,Kd,[20]; [32],0.00128 µM
same,Kd,[21]; [32],0.671 µM
GEILLLEWL,Kd,[16]; [32],0.843 µM
same,Kd,[17]; [32],0.000363 µM
same,Kd,[18]; [32],4.96 µM
same,Kd,[19]; [32],0.00944 µM
same,Kd,[20]; [32],19.5 µM
same,Kd,[21]; [32],0.00151 µM
IDPLIVSTS,Kd,[16]; [33],18.9 µM
same,Kd,[17]; [33],≥ 48.4 µM
same,Kd,[18]; [33],≥ 77.5 µM
same,Kd,[19]; [33],≥ 77.9 µM
same,Kd,[20]; [33],4.61 µM
same,Kd,[21]; [33],18.3 µM
IEELFYSYAT,Kd,[16]; [32],0.0106 µM
same,Kd,[17]; [32],1.52 µM
same,Kd,[18]; [32],0.786 µM
same,Kd,[19]; [32],0.326 µM
same,Kd,[20]; [32],0.0519 µM
same,Kd,[21]; [32],0.205 µM
IVIAPAMGM,Kd,[24],≥ 20 µM
KEINFLSQT,Kd,[16]; [34],0.643 µM
same,Kd,[17]; [34],≥ 63.7 µM
same,Kd,[18]; [34],≥ 28.3 µM
same,Kd,[19]; [34],16.1 µM
same,Kd,[20]; [34],0.0151 µM
same,Kd,[21]; [34],17.3 µM
LAFITFLRV,Kd,[2]; [35],4.24 µM
LDLVLLNLL,Kd,[16]; [36],12.5 µM
same,Kd,[17]; [36],18.7 µM
same,Kd,[18]; [36],≥ 43.6 µM
same,Kd,[19]; [36],≥ 77.9 µM
same,Kd,[20]; [36],0.0485 µM
same,Kd,[21]; [36],≥ 45.4 µM
LLQSKNAGAV,Kd,[1]; source organism: Homo sapiens,≥ 65.2 µM
LMCHATFTM,Kd,[25],0.00945 µM
same,Kd,[26]; [27],1.6 µM
LPDYGELTLD,Kd,[26]; [35],9.96 µM
LPLPWLPGA,Kd,[2]; [27],0.651 µM
MGMGVTYLA,Kd,[1]; source organism: Dengue virus 3 Martinique/1243/1999,0.0319 µM
